Experimental data: the nanobody polyreactivity screen of Harvey et al. (2022)

Assay: yeast display, Sf9 membrane polyspecificity reagent, FACS + sequencing; frameworks hold sequencing errors
Method in brief: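 Using colony PCR, genes from sorted yeast display clones were amplified, then sequenced on MiSeq at 2 × 250 and filtered by CDR length. The clones had been stained with 10% biotinylated, detergent-solubilized Sf9 membrane reagent for 1 hour at 4 °C and sorted by FACS into low and high (top ~1%) gates on anti-HA and streptavidin fluorescence. Polyreactivity labels come from the gate of origin.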

Sequence	polyreactivity (PSR sort gate)
QVQLVESGGGLVQAGGSLRLSCAASGSIFVPYAMGWYRQAPGKERELVAAISSSTASTYYADSVKARFTISRDYAKNTVYFQMNCLKPEDTAVYYCNAEQWDYGVRVAHYDYWGQGTQVTVSS	low polyreactivity
QVQLVESGGGLVQAGGSLRLSCAASGSILVRYAMGWYRQAPGKERELVAAITYSGGSTYYADSVKGRFTISRDNAKNTVYLQMNSLKPEDTAVYYCAADVWWSYYRYDYWGQGTQVTVSS	low polyreactivity
QVQLVESGGGLVQAGGSLRLSCAASGRIFPGYAMGWYRQAPGKEREFVAAITASGGTTYYADSVKGRFTISRDNAKNTVYLQMNSLKPEDTAVYYCAVYDWRYYLGKLMEYWGQGTQVTVSS	high polyreactivity
QVQLVESGGGLVQAGASLRLRCAASGRTFYYKTMGWYRQAPGKERELVAAITRNGGSTYYADSVKGRFTISRDKAKNTVYLQMKSLKLEDTAVYSCGAEGPSHRLNVRQVKGSDSWGQGTQVSVSS	low polyreactivity
QVQLVESGGGLVQAGGSLRLSCAASGFIFASYTMGWYRQAPGNEREWVAAISRSGGRTYYADSVKGRFTISRDNAKKTVYLQMNSLKPEDTAVYYCATLETTGVNYWGQGTQVTVSS	high polyreactivity
QVQLVESGGGLVQAGGSLRLSCAPSGIIFQFYAMGWYRQAPGKERELVAAISRSGGITHYADSVKGRFTISRDNAKNTVYLQMNSLKPEDTAVYYCAAVRQAYPRLDYWGQGTQVTVSS	high polyreactivity
QVQLVESGGGLVQAGGSLRLSSAASGYTFTINTMGWYRQAPGKERELVAAITWRGGSTYYADSVKGRFSISRDNAKNTVYLQMNSLKPEDTAVYYCNKDYYITTTTFDYWGQGTQVTVSS	low polyreactivity
QVQLVESGGGLVQAGGSLRISCAASGRTFRKYGMGWYRQAPGKERELLAAITRSGDSTYYADSVKARFTISRDNAMNTVYLQMNSLKPEDTAVYYCNTDGPRTYDTWEYDYWGQGTQVTVSS	high polyreactivity
QDQLVESGGGLLQAGGSLRLSCAASGIIFYPYAMGWYRQAPGKERELVAAITTRGRTYYADSVKGRFTISRDNAKNTVYLQLNSLKPEDTAVYYCNARRYFSRDSSGYNYWGQGTQVTVSS	high polyreactivity
QVQLVESGGGLVQAGGSLRLSCAASGFTIHRYAMGWYRQAPGKERELVAAIRWSGGRTYYADSVKGRFTISRDNAKNTVYLQMNSLKPEDTAVYYCAARTNSPRGYGSDYWGKGTQVTVSS	high polyreactivity
QVQLVESGGGLVQAVGSLRLSCAASGFTFGEYDMGSYRHAPGKERELVAAIDSGGSTYYADSVKRRFTISRDNAKNTVYLQMNSLKPEDTALYYCNADSTYDYYELDYDHWGQGTQVTVSS	low polyreactivity
QVQLVESGGGLVQAGGSLRLSCAASGRTFRDNAMGWYRQAPGKERELVAAISWSGGSTYYADSVKGRFTISRDNAKNTVYLQMNSLKPEDTAVYYCAASGYYRYTPFRYDHWGQGTQVTVSS	low polyreactivity
QVQLVESGGGLVQAGGSLRLSCAASGYISRYNTMGWYRHAPGKERELVAAITWSGGSTYADSVKGRFTISRDNAKNTVYLQMNSLKQEDTAVYYCAAGAYIWDNYSYRWYDYWGQGTQVTVSS	high polyreactivity
QVQLQESVGSLVQAGGSLRLSCAASGSISILQYMGWYRQAHGKELELVAGINWGATTYYADSVKGRLTTSRDYAKKTVYLQMNSLKPEDTAVYYCAVPTFYSYPVLYWGQGTQVTVSS	low polyreactivity
QVQLVESGGGLVQAGGSLRLSCAASGRTSRYALGWYRQAPGKERELVAAISRNGGTTSYADSVKGRFTISRDNAKNTVYLQMNSLKPEDTAVYYCNAYSAFVPPTRGYYWGQGTQVTVSS	high polyreactivity
QVQHEESGGGLVQAGGSLRLICAASGRTFADNAMGWYRQAPGTERELVPSISSVTSTNYADSVKGRFTISRDNAKYTVYFQMNSLKPEDPAVYDCNAYGPIWYTAVLGFGRYYGWTDYWGQGTQVTVSS	low polyreactivity
QVQLVESGGGLVQAGGSLRLSCAASGSTFDYYDMGWYRQAPGKERELVATITSGGSTNYADSVKGRFTISRDNAKNNVYLQMNILKTEDTAVFYCASDIGGDGEGYDYWGQGTQVTVSS	low polyreactivity
QVQLVESGGGLVQAGGSLRLTCAASGRTFGTYVMGWYIQAPGKERELVATISRRGGTTYYADSVKGRFTISRDNAKNTVYLQMNSLKPVDNAVYYCAATYFGTRYDYWGQGTQVTVSS	high polyreactivity
QVQLVESGGGLVQAGGSLRLSCAASGRIFYYYAMGWYRQAPGKERELVAVISRGGRTKYADSVKGRFTISRDNAKNTVYLQMNILKPEDTAVYYCAAYPSYYGDSGLRYDYWGQGTQVTVSS	high polyreactivity
QVQLVESGGGLVQAGGSLRLSCAASGSTFWYNAMGWYRQAPGKERELVAAISRSGATTYYADSVKGRFTISRDNAKNTVYLQMNSLKPEDTAVYYCNAVISPSSYVRNSDYWGQGTQVTVSS	low polyreactivity
QVQHEESGGGLVQAGGSLRLSCAASGRIFGAYPMGWSRQATGKERELVAAITSRGGNTYYADSVKGRFTISRDNAKNTVYLQMNSLKPEDTAVYYCAARHDKRRQYYVGQSAFDYWGQGTQVTVSS	low polyreactivity
QVQLVESGGGLVQAGGSLRLSCAAYGSTFFLYAMGWYRQAPGKVRELVAAITYTDGDTYYADSVKGRFTISRDNAKHTVYLQMNSLKPEDTAVYYCNAGGDEPVYGSGYDYWGQGTQVNVSS	low polyreactivity

Sequence	polyreactivity (PSR sort gate)
QVQLVESGGGLVQAGGSLRLSCAASGRIFYAYVMGWYRQAPGKERELVADITSSGSTNYADSVKGRFTISRDNAKNTVYLQMNSLKPEDTAVYYCAKVPYAYQVRRKFGYWGQGTQVTVSS	low polyreactivity
QVQLVESGGGLVQAGGSLRLSCAASGFIFRYYALGWYRQAPGKERELVAAIDYSGGSTNYADSVKGRFTISRDNAKNTVYLQMNSLKPEDTGVYYCATVSDNRYYYWGQGTQVTVSS	low polyreactivity
QVQLVESGGGLVQAGGSLRLICAASGRIFGYYVMGWSRQSPGKERQLVAAIRSSADSTYYADSVKGRFTISRDNAKNTVYLQMNSLKPEDTAVYYCAAQSPAYYTKSYWGQGTQVTVSS	low polyreactivity
QVQLVESGGGLVQAGGSLRLSCAASGRTFYGNAMGWYRQAPGKERELVAGITRGGSTYYADSVKGRFTISRDNAKITVYLQMNSLKPEDTAVYYCAARAYYARFLMGYWGQVTQVTVSS	high polyreactivity
QVQLVESGGGLVQAGGSLRLSCAASGSTIFGYALGSYRQAPGKERELVAASSSGGSTYYADSVKGRFTISRDNAKNTVYLQMNSLKPEDTAVYYCAATRRLKRYWAQGTQVTVSS	high polyreactivity
QVQLVESVGGLVQAGGSLRLSCAASGFTFPWNVMGRYRQAPGKERELVAAITYDGGGTYADSVKGRFTISRDNAKNTVYLQMNSLKPEDTAVYYCNADLINGEEYDYWGQGTQVTVSS	low polyreactivity
QVQLVESGGGLVQAGGSLRLSCAASGSTFSWYAMGWYRQAPGKERELVASISFSGGDTSYADSVKGRFTISRDNAKNTVYLQMNSLKPEDTAVYYCGKEYKYETDTKFDYWGQGTQVTVSS	low polyreactivity
QVQLVESGGGLVQAGGSLRLSCAASGRIFGYYAMGWSRQAPGKERELVAAISSDGSTYYADSVKGRFTISRDNAENTVYLQMNSLKPEDTAVYYCAKEGRWDSYGYSAQPFYYWGQGTQVTVSS	low polyreactivity
QVQLVESGGGLVQAGGSLRLSCAASGSIFRRYVMGWYRQAPGKERELVASISSNGTSTYYADSVKGRFTISRDNSKNTVYLQMNSLKPEDTAVYYCNVDIFDPRTYDYWGQGTQVTVSS	low polyreactivity
QVQLVESGGGLVQAGGRLRLSCAASGFIFGSYAMGWYRQAPGKERELVAVISSSGGRTYYADSVKGRFTISRDNAKNTVYLQMNSLKPEDTAVYYCNAKSRLFPTYRIYDYWGQGTQVTVSS	high polyreactivity
QVQLVESGGGLVQAGGSLRLSCAASGSTFHLYAMGWYRQAPGKERELVADIDLSGGSTYYADSVKGRFTISRDNAKNTVYLQMNSLKPEDTAVYYCAADHVSSLGFDYWGQGTQVTVSS	low polyreactivity
QVQLVESGGGLVQAGGSLRLSCAASGGTFYYYAMGWYRQAPGKERELVAAISWSGVSTSYADSVKGRFTISRDNAKNTVFLQMNSMKPEDTAVYYCAAGPFYYTGGHWGQGTQVTVSS	high polyreactivity
QVQLVESAGGLDQAGGSLRLICDASGFISRNAMGWYTQAPGKERELVAAITRGGSTNYADSVKGRFTISRDNAKNTVYLQMNSLKPEDSAVYYCNQQRQGNSRSYYQTYYGMYYWGQGTQVTVSS	high polyreactivity
QVQLVESGGGLVQAGGSLRLSCAASGRTFAANTMGWYRQAPGKERELVAAINAGGSTYYADSVKGRFTISRDTAKNTVYLQMNSLKPEDTAVYYCAAKGSGYYGRQRIYSYTYDYWGQGTQVTVSS	high polyreactivity
QVQLVESGGGLVQAGGSLRLSCAASGSTFGYYTMGWYRQAPGKERELVAAITKSGGGTYYADSVKGRFTISRDNAKNTVYLQMNSLKPEDTAVYYCADYSRFTSDYWGQGTQVTVSS	high polyreactivity
QVQLVESGGGLVQAGGSLRLSCAASGFTFGDYAMGWYRQAPGKEWELVAAISWSAGSTYYADSVKGRFTISRDNAKNTVYVQMNSLKPEDTAVYYCAADDSATIEDDYWGQGTQVTVSS	high polyreactivity
QVQLVESGGGLVQAGGSLRLSCAASGSTFQGYAMGWYGQAPGKERELVAAINYSGGSTYYADSVKGRFTISRDNAKNTVYLQMNSLKPEDTAVYFCAARWYAVRDDYIVRYDYWGQGTQVTVSS	high polyreactivity
QVQLVESGGGLVQAGGSLRLSCAASGRTITKYVMGWYRHAPGKERELVAAITSSGSSTYYADSVKGRFTISRDNAKNTVYLQMNSLKPEDTAVYYCAARRGAPFARQYDYWGQGTQVTVSS	high polyreactivity
QVQLVESGGGLVQAGGSLRLSCSASGSIFSYYAMGWYRQAPGKERELVAAISRSGGSTYYADSVKGRFTISRDNAKNTVYLQMNSLKPEDTAVYYCAATRIHYPSYDYWGQGTQVTVSS	high polyreactivity
QVQLVESGGGLFQAGGSLRLSCAASGFTFYGYAMAWYRHAPGKERELVAAITFRGDRTYYADSVKGRFTISRDNAKNTVYLQINSLKPEDTAVYYCAAVRPSGWYSYLSLYIVRRGYWGQGTQVTVSS	low polyreactivity
QVQLVESCGGLVQAGGSLRLSCAASGSIFYFNAMGWYREAPGKERELVAAINISGSSTSYADSVKGRFTISRDNAKNTVYLQMNSLKPEDTAVYYCAAEDEPRILIVRVWDYYWGQGTQVTVSS	low polyreactivity
